experiment: soluble on expression in E. coli; label from the status in PepcDB or PDB records

Sequence	soluble on expression in E. coli
MGSDKIHHHHHHLDDYDDDIYDMQAGMPFNAALATVVTPSEIPGEAMIESDNDGVAYVVNPDKLTRFETNNPGQRIFYTYINADNPTGDASKKGPFISIDYLQKILTKRMDTLKENEEDIYGHDGINLITPIMGKTHLTLMFQILGFNSNIKHRISLVATEGTVPDANGYMAVELRHNAEGDRQEYPSSGYVSFPLLDVPGYKEGKLQGFKIKMNTINNGEETVTVSYNKSKSTNFPFIQKGISNTKIK	not soluble
MGSDKIHHHHHHLGPPTPLGLRAAPHNVTNLAQTPLAERLRSLVDTVQHNERTLRRFQSVELRLIGAQDFASFLDTLFGQLPREFSLAGVTLWLDDRAPMLRELLEPVALRALDQPRLRTSREGGLAAQGLCEDGRPWLGTPRELDDTVRRAFFGDAEQVPASAILLPLASGDTVGGYLWLGSDDAARFAQGMATDILERFASIVTASLDNVAHRERLKQLGMTDSLTGLANRRYFDERLREEVMRAVRYRMPVACLFIDIDSFKRINDTYGHQTGDRALAAVAACVRQQVRLGDTVARYGGEEFAALLQGDRADALTVAERVRLAVERLALQDDHGERIALTVSIGVAARMVSGTPTEAAMLGGAIIEEADRAMYQAKRNGRNRIEALVNASGDHTAG	not soluble
MGSDKIHHHHHHLIPFFLDLVSRTDEARRAFELHPVVTHAAANGMTLQRYRRLLLELYHVVWHFNTVSAAGASRLQDTHKQVRYFLYEHMHEESGHEEWVLADLEQMGVTRDIALNHRPSHYTLALVGYYYYAADRKHPASVLGMLYALEVIASVYGGTLTSAVKESLLLDDERGVSFISSHATLDAEHMADLKTVLDTIEDDEAKDAIEEAVLLTFNHLTHIMVEAHLEEGDISGAPAVNAEHFAISAEKAAA	not soluble
MGSDKIHHHHHHLIYIYYPELRLFNGDEITQKFVKGEVVEAHEVLRLKHSIATYRSRLCDISWFMRCLNEPIARQANQEDSCTGRFWEGRFKSQALLDEAAVLACMAYVDLNPIRAKMASTPEQSDHTSIQLRIRAALKGEQPNNLLPFIGNERQFQPKGITFALKDYLELVDDTGRIIRNDKRGSVSANSAKLLTRLNISQENWLKLTTEFGKLFHGPVGTLQELTSYCEHLEKRRRHFASCCQHLKAG	not soluble
MGSDKIHHHHHHLKILKFQIKDFRNLKKIEYQPSPGLNIFYGENAQGKTNILEALYYLATGNSFRSNKEKTLISYESSSLQVQARYNHQERIIDSSITYGLDGKVFRINKKRASYNHTDRLRIILFSPDDLYLVKGAPYKRRFFLDFLLGQISNEYLFKLDNYRKILKKRNLLLKKEETNSRSFAIINDIFMDLAAQLLISRLNLINVLDEAIQEIYPQINNDGGQLKIRYALSFPVDSGKINLDILKDSLKKQVESETEKEKKRKTTLLGPHLDDMHIYLNEQMARLFASQGQQRNIVICLKLAEIMTFRKIKGFFPIFLLDEVLAELDDSRSNKLLKYLAQSPFQSFLTSVKLEKFEVMDASIFLVKDGCLLGKE	not soluble
MGSDKIHHHHHHLSADHNAFRRALTERWGKAFGEPVIHEDPRTRSLCFGAPGVQSSMRTSDPLELDLPYTRAMMSFQLFCPDPKDILIVGLGGGSLSKYCFHKFPSARVTTVEIDERVIALRDAFFIPPESERFRIVHADAAAYLPDKVGLADVILLDGFDASGLPASLSSQYFYDCCHAALRDEGVLVANLLSSDPRLGAHLDRIHRACHGKLFRTMARREGNTIAIGIRQATWPGWPDLYARAEAITASTGLDLCRYVKKMERHHRVEPVSEHPSSDTLAVEQNR	not soluble
MGSDKIHHHHHHLTDMLAPRVVARLRGVTKSFDGTTVVRNVDLDFRSGEVHVLAGENGAGKSTLTKLLAGIHQPDHGTVEINGQMGPFDVKSSRTAGVTLVHQELLIAPNLTVADNLAMGQENRNRFRGLDRTATLENARAQLAHIGATFPVTMRAEELTVADHQQIEIARALAQKPKILILDEPTSALSSAETERLLRIVDELRRNGTSVIYITHRMEEIEALADIVSIMRDGSLVETMPKAEATPDAIVLRMVGRKIDSLFTAERPEPGRVVLRVEQLTNGKDIGPIDLDVRAGEVVGIGGLIGSGRSEFVRLIFGADRASSGTVSVDGSPVNVTGPGSAVRAGIALLPESRKTQGLVLDQSIAANIVLASLGHISSAGVVTPAAVKRVASKAQKRLGIKSASLGQEVTTLSGGNQQKVLFAKWLETKPKVLILDEPTRGVDVGAKAEIYQIINECAHAGVAVLVISSELPELIGLSSRVHVMREGRLVAEIDAQSLTEEAVMNHAFGIAQATQA	not soluble
MGSDKIHHHHHHLTLSIEHLTGGYTQTPVIKDINFEVKNGELLGLIGLNGAGKSTTINHVIGLMRPMKGKIILDEIDLEQNPTQYKTKLAYIPELPILYDELTLKEHIELTIKAYEMNSEKAWQQAHKLLKTFRLENKLDWFPANFSKGMRQKVMIVCAFITDAELFVVDEPFLGLDPLAIDDLLKVINEKKQQGASILMSTHVLDTAEKYCDRFALLNEGELKAVGTLADFQKQFNLPNSSLNDIYLTIAKGERDE	not soluble
MGSDKIHHHHHHMAAGSTLWTRIPAMQQQNHPPYTLAIAQGESISLDPSHFTPEHWQALAAVTGTSKGRYTTWFVRHPEANQDWVLRHYWRGGLMEKFSKDRYLYTGMANTRAIAELALLEKLHAEGFPVPRPVGARVRRYALWYSADILIERMPGCRDLLAWLEQGPLDEAEWKALGVCIARFHHRGVYHADLNAKNILKGPQGFALIDFDRGEIRNPANSWQQANLSRLRRSFDKEKGKLPSLAFDESCWQWLLEGYAAA	not soluble
MGSDKIHHHHHHMAAINAAVLQALRTMVRSEFQNALTKTESLYLKIASVVPSNTKSNTYGWLGSMPTMREWIGARVINSIKEHGYSITNRTFETTIGICRDDVEDEVIGTYKPMVQALAQEGEEFPDDLVFELLADGFSTLCYDGQNFFDTDHPVNEKHDGTGDNVSVANMALDAAYTGEPWFLLDTTRPLKPVIFQERRKLDLNTLFNPTDPAVWTNNEFQFGTDMRCEAGFGFWQMAFANKRALNADNLWDTIEKMKAFKRDGGKKLKIRPSLLVVPSSLEQAATKLLTRELIDENGTTVENELKGKVELLVVPQL	not soluble
MGSDKIHHHHHHMAAPEKTAGSKGEATQMRDAPALVGSDRQKILRAGFIPLVDASVLIAAAEFGFADREGLILDLVKDVSWANVRDRLAFRQFDIAHMLSPMPVASMLGLGSNPSPTITPFSLGRGGNAITLSTRLFARMKALTGLSETAGALENARALKLVLDDMRARGEAPPTLGMTYPFSSHNYEFRYWLAAGGIHPDHDVKLVVVPPPMTSDALAAGAIDGFCVGAPWNIVAAERGVGRIVAAKQDLWPSAPEKVIGMRPEWAESQQETVGRLLTALDAAASWCDLADNHDALSGALADPRYIGAPQSIIRRVLAGEFSIDSQGNRRVIEKYFTFHGDHANYPRQSQSLWIYSQMIRWGQAELSETGVNAALSAYRPDIYRAALGDGKAPGDADIRIEGQDEGDRFVDGFVFDPADIAGYVNSFAVRTSVPVSAPSGEA	not soluble
MGSDKIHHHHHHMACGEFSGDDAAMKQTSFATAEYAGKKRQTRRERFLAEMNVVVPWARLEALIEPHYPKSGKVGRPPIGVPRMLRMYFLQQWYTLADEALEDALYDSQAMREFIGIDLGRENVPDATTLLKFRRLLEQHDLTSAILAEVNAHLTERGLLMRQGTVVDATIIAAPSSTKNEDGKRDPEMHQTKKGNQWHFGMKMHSGVDAESGLIHSVVCTAANEADVAHAHELLHGQESQVHGDSGYTGIQRRDEITTAQEEGRLRQDMDWRIAMKRGQLKAMPEGPAKAMHEWFERRKAQVRAIVEHPFHVIKNLFGYRKVSYRGISKNEARAKAHAALANLYIARRRLLAQGLSASAA	not soluble
MGSDKIHHHHHHMADGAEFKVYTQRFIMEKIAYYLGQYHSLEENNAFWGEGFTEWHNVAKARPLFPSHRQPVLPGKLGFYDLRNNDTIEEQVALADSFGVTAFCHWHYWFGGKRVLYRPFDSMLKIQNSPVKVMLGWANESWTGIWHGLSDQVIFEQPYNKIELNEHAKLLADYFRHENYLKVNGKAAFLIYKPRKIPESKSYLQLLRQKVYENCGLDMYIIGTWGPGRLEVIHSADELGLDALVANNVGATFKSELSRKLYNGFWTAAKSLGLGPELRNYASTVKTLEYAHQNISGTVHSTIVTGWDNSPRSNRRALVLTNFNENSFKYAIDIAISNEKNNENKLLFIKSWNEWAEGNTLEPRFKEDWSLGKVLKKQIIKHDV	not soluble
MGSDKIHHHHHHMAEEIPVYLFTGFMDSGKTSLIKDTIFENDFANGSKGLIIMCEDGDVEYDMDKLKAANIQVAEIDSEDEFAAAKLNELNMQYLPEQVFIEYNGTWGIDKIIEAELPKGWVIVQSLATVDSTTFDLYMNNMRAMMQEQVFASDVVIFNRTDDDTDRGHLRRTIKNINRKAQIVYERKDGTIDERPEELPFDINQDVIELSDADYAIWYMDAMENYKKYDGKVVKFLALVYNPDKLRKGVMVPGRFAMTCCIEDVTFIGFKCKYEDESSIPHKSWITITARVHVEFAREYKGKGPVLYPVSIEPAEKPQDELVYFS	not soluble
MGSDKIHHHHHHMAEFPASLLILNGKSTDNLPLREAIMLLREEGMTIHVRVTWEKGDAARYVEEARKFGVATVIAGGGDGTINEVSTALIQCEGDDIPALGILPLGTANDFATSVGIPEALDKALKLAIAGDAIAIDMAQVNKQTCFINMATGGFGTRITTETPEKLKAALGSVSYIIHGLMRMDTLQPDRCEIRGENFHWQGDALVIGIGNGRQAGGGQQLCPNALINDGLLQLRIFTGDEILPALVSTLKSDEDNPNIIEGASSWFDIQAPHDITFNLDGEPLSGQNFHIEILPAALRCRLPPDCPLLR	not soluble
MGSDKIHHHHHHMAELQEVQITEEKPLLPGQTPETAKEAELAARILLDQGQTHSVETPYGSVTFTVYGTPKPKRPAIFTYHDVGLNYKSCFQPLFRFGDMQEIIQNFVRVHVDAPGMEEGAPVFPLGYQYPSLDQLADMIPCILQYLNFSTIIGVGVGAGAYILSRYALNHPDTVEGLVLINIDPNAKGWMDWAAHKLTGLTSSIPDMILGHLFSQEELSGNSELIQKYRGIIQHAPNLENIELYWNSYNNRRDLNFERGGETTLKCPVMLVVGDQAPHEDAVVECNSKLDPTQTSFLKMADSGGQPQLTQPGKLTEAFKYFLQG	not soluble
MGSDKIHHHHHHMAEQENSKDLISVLWSGADVLRSKMDANEYKNYLLGIVFYKYLSDSFLIRVYDLINDEKPESLKVALEAYKNELKGEYANDLLDELKQDRKYVIEPELTYTCFAEDARNNCFNREQLQKAFNNIEQSGELFVDLFSDIDLYSSRLGAGDQKQSDTIAELIKVIDQADLLNSDGEILGDAYEYLIGQFASETGKKAGEFYTPQAVSKILTRIAITGQENVKGLSIYDPCMGSGSLLLNAKRYYKGDTNYIKYYGQELNMSTYNLARMNMFLHDVAAENQNLHHGDTLDADWPTGEETDFHMVLMNPPYSAKWSAASGFLQDERFSEYGVLAPKSKADYAFLLHGLYHLKSNGTMAIVLPHGVLFRGAAEGKIREKLLRSGNIYAVIGLPANLFYNTSIPTCIVVLKKHRDGRDVLFIDASKKFIKGKKQNEMSDEHIDEVMDLYNRRETVDKESYLASFDDIEKNDFNLNIPRYVDNFEKEEEVDINGLLEDMQKTDDEIGKVEGEFVNLLKDLTSSDENIMASLNRYIDMIEG	not soluble
MGSDKIHHHHHHMAERVLVPTQIGRGDRYYTYTELLAISRRFKQNPNELMVTWILRVYDQGGPALSLNSGELGLLGDLTHDAIFNYRCKALRGAGCQTLLSWLLQAWRQRWESSLHFEATELPFRPWTTMEEGIQLVRELGMIEWIYLDPEGPVDLAPEDVAFTQGLQRRLLTAAPSELRLSLVSLLVRGMTVLEAVMEIQTIADVGLLWRQSHPGRTKLMLGPNPTRKDLLGWLLSHGVPREQVDRQPTKVLLELYIKEAKRSRGHPNYGLNEEQPPPPPYSDQACGEEQPVRHD	not soluble

— the DeepSol protein solubility set
